Test results: US20020137095A1 (RIKEN, published 2002)

B1: recombinant CR-50 epitope fragment of Reelin (residues 230-346) with C-terminal His-tag, from E. coli (other, not shown: small tags and cut ends)
chain: EQCGTIMHGNAVTFCEPYGPRELTTTCLNTTTASVLQFSIGSGSCRFSYSDPSITVSYAKNNTADWIQLEKIRAPSNVSTVIHILYLPEEAKGESVQFQWKQDSLRVGEVYEACWAL
notes: Under physiological conditions it forms a homopolymer of more than 600 kDa (more than 40 molecules of about 15 kDa)

How the values were obtained:
[1] = target: T1, full-length mouse Reelin protein (mouse, UniProt Q60841 27-3461); assay: cell adhesion assay after allowing for about 20% background, CR-50 at 20 µg/ml
T1 construct: whole, on cells; Secreted protein; Forms homophilic complexes of unstated size; also called native Reelin; full-length Reelin
T1 sequence (Q60841 27-3461): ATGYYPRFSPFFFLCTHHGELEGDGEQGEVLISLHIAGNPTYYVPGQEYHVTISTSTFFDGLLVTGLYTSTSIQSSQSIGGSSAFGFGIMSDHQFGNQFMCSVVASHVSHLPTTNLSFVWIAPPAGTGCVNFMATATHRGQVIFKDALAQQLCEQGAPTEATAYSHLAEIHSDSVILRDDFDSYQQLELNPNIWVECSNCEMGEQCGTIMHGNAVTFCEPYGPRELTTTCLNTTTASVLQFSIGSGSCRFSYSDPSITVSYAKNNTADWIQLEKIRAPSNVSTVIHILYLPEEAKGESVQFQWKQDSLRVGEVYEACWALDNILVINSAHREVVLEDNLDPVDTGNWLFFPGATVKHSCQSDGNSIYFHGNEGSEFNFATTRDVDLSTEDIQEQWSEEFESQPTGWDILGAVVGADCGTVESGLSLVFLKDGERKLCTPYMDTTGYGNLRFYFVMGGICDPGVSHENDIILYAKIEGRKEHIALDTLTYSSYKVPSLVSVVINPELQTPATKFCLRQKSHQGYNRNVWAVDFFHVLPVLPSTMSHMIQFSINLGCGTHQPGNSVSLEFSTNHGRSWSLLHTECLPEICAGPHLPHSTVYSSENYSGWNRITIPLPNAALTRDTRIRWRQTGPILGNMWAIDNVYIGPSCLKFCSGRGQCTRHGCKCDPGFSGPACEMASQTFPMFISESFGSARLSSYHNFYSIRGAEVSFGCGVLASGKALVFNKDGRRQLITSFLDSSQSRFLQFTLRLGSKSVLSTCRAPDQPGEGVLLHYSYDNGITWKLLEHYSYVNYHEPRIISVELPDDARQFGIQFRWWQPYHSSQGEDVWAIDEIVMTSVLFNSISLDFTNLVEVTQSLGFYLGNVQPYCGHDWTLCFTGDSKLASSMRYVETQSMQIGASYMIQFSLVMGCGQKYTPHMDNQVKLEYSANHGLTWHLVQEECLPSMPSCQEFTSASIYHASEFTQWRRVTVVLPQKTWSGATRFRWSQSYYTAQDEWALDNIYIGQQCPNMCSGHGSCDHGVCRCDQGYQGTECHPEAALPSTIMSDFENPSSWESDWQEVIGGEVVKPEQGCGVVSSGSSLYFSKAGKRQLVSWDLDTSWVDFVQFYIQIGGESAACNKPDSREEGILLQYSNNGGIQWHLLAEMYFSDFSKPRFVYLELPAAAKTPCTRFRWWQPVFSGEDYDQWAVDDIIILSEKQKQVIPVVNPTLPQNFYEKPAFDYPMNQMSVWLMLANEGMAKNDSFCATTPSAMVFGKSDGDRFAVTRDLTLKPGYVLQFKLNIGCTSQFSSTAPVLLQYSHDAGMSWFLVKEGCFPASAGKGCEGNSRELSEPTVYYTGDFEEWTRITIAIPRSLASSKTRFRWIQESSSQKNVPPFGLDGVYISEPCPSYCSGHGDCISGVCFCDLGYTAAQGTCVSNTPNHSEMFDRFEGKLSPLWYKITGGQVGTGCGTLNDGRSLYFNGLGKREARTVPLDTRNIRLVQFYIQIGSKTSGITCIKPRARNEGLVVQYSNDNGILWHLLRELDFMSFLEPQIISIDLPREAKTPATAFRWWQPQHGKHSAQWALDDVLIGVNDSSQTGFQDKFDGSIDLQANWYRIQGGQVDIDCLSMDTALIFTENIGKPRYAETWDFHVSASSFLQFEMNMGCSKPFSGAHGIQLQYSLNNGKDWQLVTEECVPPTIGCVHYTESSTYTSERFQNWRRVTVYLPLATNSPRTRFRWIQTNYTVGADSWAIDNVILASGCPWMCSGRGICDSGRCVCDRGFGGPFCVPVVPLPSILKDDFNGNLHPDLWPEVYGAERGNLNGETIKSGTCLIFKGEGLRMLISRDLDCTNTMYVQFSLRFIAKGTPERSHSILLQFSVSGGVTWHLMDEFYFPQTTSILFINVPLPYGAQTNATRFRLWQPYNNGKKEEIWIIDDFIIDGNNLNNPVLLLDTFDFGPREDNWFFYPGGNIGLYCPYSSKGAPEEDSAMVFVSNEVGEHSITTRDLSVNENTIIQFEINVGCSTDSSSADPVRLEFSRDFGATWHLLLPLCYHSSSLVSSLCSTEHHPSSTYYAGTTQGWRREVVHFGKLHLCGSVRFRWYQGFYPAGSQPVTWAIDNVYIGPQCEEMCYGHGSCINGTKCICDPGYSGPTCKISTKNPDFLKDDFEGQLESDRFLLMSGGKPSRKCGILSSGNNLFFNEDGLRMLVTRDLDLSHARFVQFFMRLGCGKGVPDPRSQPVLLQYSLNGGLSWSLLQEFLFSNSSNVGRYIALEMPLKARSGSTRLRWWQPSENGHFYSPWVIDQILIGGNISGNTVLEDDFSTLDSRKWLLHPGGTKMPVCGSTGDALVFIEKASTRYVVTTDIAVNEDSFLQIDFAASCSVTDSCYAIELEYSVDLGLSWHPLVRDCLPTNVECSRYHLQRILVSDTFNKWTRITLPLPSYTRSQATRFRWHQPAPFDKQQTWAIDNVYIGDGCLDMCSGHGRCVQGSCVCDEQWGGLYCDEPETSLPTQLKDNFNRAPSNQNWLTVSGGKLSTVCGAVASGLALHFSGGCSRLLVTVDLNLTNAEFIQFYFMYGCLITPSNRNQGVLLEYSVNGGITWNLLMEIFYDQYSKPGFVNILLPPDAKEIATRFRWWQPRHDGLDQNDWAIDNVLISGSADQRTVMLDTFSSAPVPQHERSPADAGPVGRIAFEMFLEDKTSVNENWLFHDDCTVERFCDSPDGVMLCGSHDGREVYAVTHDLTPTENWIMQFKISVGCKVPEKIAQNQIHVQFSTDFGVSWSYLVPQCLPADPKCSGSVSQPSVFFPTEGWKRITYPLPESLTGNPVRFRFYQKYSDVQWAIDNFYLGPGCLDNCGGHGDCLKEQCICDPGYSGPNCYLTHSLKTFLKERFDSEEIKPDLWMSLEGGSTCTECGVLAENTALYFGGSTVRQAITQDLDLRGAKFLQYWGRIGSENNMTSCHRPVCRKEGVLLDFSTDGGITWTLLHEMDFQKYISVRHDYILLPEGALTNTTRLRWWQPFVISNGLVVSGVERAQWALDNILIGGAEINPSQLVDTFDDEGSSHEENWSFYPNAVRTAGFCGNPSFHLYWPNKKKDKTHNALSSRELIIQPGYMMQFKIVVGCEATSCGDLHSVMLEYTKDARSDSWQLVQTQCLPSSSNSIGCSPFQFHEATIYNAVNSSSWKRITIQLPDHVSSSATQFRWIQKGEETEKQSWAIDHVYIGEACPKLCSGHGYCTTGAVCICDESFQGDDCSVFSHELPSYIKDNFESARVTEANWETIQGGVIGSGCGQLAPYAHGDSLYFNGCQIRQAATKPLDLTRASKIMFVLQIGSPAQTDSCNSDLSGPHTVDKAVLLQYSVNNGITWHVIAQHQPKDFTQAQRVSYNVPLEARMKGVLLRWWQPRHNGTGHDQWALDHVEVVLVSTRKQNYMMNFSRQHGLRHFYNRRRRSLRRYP

[2] = target: T1, full-length mouse Reelin protein; assay: cell adhesion assay after allowing for about 20% background, CR-50 at 50 µg/ml
[3] = target: T1, full-length mouse Reelin protein; assay: cell adhesion assay after allowing for about 20% background, CR-50 at 200 µg/ml
[4] = target: the molecule itself; assay: analytical gel filtration (Superdex-200), 0.15 M NaCl, pH 7.4, 40 µM sample
Method: A FPLC gel filtration chromatography system (Pharmacia) was used for chromatography. This system was controlled by a computer FPLC director program (Pharmacia). The sample was loaded onto a Superdex-200 gel filtration column (separation range: 10 kDa to 600 kDa, Pharmacia), which had been pre-equilibrated with a buffer containing 20 mM sodium phosphate, pH 7.4, 0.15 M NaCl, and 5 mM DTT, and then eluted at flow rate of 0.5 ml/min. The sample concentration was adjusted to 40 μM.

[5] = target: T1, full-length mouse Reelin protein; assay: cell adhesion assay: Reelin-presenting cells on CR-50 epitope-coated dishes (200 or 50 µg/ml)
Method: (A) Reelin-presenting cells on CR-50 epitope-coated dish (200 μg/ml). (B) Reelin-presenting cells on control-coated dish. (C) Histograms showing cell numbers in cell adhesion assay on CR-50 epitope-coated dishes (200 or 50 μg/ml) that are normalized to the control.
The former supernatant contained full-length Reelin molecules and the latter one contained no Reelin. After nitrocellulose/methanol treatment, Petri dishes were coated overnight with each supernatant. Petri dishes coated with the CR-50 epitope were prepared by overnight incubation with recombinant CR-50 epitope proteins produced from E. coli cells. […] After incubation for 2 hours, each plate was washed with panning buffer (PBS containing 10% v/v FCS) 7 to 10 times until no floating cells remained. To examine the effect of CR-50 antibody on cell adhesion, the antibody was added to the culture medium from the beginning of incubation. Then, the cells remaining on the dishes were observed by a microscope connected to a computer-controlled camera. This experiment was repeated five times, and for each dish, five microscopic fields were scored.

Row | Molecule | specific binding left, fraction of the control (fraction of specific binding) [1] | specific binding left, fraction of the control (fraction of specific binding) [2] | specific binding left, fraction of the control (fraction of specific binding) [3] | binding result [4] | binding result [5]
1 | CR-50 antibody | 0.33 | 0.25 | 0.1 | – | –
2 | B1 | – | – | – | binds | binds
